In IntAct's records for PubMed 11412997:

Target: par6_caeel par-6 (UniProt Q9NAN2)
Sequence (Q9NAN2 whole entry): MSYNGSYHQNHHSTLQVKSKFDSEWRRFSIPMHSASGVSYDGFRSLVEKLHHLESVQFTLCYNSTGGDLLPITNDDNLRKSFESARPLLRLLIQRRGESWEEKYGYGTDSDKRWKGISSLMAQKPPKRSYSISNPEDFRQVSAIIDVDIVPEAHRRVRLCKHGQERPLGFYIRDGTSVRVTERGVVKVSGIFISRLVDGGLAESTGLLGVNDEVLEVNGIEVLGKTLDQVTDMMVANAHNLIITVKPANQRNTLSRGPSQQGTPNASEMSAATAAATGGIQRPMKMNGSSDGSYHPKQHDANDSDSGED

Sequence of Cell division control protein 42 homolog (Caenorhabditis elegans), Q05062 T17N (Q05062 whole entry T17N): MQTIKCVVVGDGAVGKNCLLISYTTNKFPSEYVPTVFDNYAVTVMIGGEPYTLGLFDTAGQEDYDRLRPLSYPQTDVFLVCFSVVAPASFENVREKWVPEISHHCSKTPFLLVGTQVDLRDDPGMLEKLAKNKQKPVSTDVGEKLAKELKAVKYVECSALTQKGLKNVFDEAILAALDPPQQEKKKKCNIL

effect of a mutation on the interaction: disrupting interaction
Substance: Cell division control protein 42 homolog (Caenorhabditis elegans), Q05062 T17N
